From patent US20220332804A1 (CSL INNOVATION, published 2022)
Changes are numbered by the printed parent chain.

Key:
Assay in all cases: SPR, antibody captured, C2 as analyte;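 further: biacore SPR at 37 °C, anti-C2 mAbs captured via goat anti-human IgG on CM5 chips, double-referenced sensorgrams fit to a 1:1 kinetic or steady-state model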
[1] = target: T1, human C2 S720A (human, UniProt P06681 21-752)
T1 sequence: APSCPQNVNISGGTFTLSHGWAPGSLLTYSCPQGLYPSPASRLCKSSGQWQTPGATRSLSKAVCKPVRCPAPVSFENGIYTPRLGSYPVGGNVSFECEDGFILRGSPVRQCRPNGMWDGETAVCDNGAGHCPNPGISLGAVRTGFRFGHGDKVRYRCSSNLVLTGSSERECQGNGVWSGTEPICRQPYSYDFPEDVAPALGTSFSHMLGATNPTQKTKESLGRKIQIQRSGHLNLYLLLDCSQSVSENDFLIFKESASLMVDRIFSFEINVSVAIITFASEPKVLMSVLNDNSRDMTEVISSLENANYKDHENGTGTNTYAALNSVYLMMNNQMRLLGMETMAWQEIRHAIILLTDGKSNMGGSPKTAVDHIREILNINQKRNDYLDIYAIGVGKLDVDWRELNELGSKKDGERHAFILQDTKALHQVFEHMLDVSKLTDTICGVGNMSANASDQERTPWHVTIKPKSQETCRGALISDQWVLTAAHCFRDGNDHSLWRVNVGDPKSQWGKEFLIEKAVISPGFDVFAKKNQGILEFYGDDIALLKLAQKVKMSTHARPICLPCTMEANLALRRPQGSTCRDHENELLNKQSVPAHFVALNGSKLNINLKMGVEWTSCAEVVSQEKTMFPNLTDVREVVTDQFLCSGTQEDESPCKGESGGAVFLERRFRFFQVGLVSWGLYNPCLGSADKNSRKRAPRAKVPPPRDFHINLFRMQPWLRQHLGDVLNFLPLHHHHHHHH

[2] = target: T2, human C2 S456A (human, UniProt P06681 21-752)
T2 sequence: T1 sequence with S436A, A700S

[3] = target: T3, human C2 N268A (human, UniProt P06681 21-752)
T3 sequence: T1 sequence with N248A, A700S

[4] = target: T4, human C2 R519A (human, UniProt P06681 21-752)
T4 sequence: T1 sequence with R499A, A700S

B1: RF16-226 (antibody, human IgG4 S228P, lambda)
heavy: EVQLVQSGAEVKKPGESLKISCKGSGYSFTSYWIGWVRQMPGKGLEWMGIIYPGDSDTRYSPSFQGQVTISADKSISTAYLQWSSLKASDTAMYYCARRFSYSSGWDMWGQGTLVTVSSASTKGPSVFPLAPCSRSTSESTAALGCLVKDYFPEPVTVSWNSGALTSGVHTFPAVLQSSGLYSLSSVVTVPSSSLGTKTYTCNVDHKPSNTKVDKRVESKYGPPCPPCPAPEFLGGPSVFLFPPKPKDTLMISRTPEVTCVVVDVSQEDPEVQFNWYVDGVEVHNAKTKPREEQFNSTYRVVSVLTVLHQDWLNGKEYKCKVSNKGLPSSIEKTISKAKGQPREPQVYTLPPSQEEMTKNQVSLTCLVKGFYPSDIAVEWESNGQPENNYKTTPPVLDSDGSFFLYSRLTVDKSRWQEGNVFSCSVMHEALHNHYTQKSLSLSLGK
light: SYELTQPPSVSVSPGQTARITCSGDALTSKYVAWYQQKSGLAPLLVIYEDTRRPSGIPAKFSGSSSGSVATLTISGAHGDDEADYYCYSTDASGHQRVFGGGTKLTVLSQPKAAPSVTLFPPSSEELQANKATLVCLISDFYPGAVTVAWKADGSPVKAGVETTKPSKQSNNKYAASSYLSLTPEQWKSHRSYSCQVTHEGSTVEKTVAPTECS
notes: pH-dependent anti-C2 antibody from a phage display library; also called WT
Which results are given for B1?
Kd [1]: 14.6 nM; Kd [2]: 71.8 nM; Kd [3]: 11.8 nM; Kd [4]: 11.2 nM
